Experimental data taken from publication PMC8726733 (mAbs, 2021).

Key:
[1] = target: biotinylated avitag-labeled canine CTLA4 (dog, UniProt Q9XSI1, biotin (biotinylated avitag)); experiment: ELISA
[2] = target: feline CTLA4 of feline CD5+ leucocytes (Felis catus, endogenous; allele not …, UniProt Q9XSY7); experiment: flow cytometry on cells

biotinylated avitag-labeled canine CTLA4, sequence (Q9XSI1 36-161): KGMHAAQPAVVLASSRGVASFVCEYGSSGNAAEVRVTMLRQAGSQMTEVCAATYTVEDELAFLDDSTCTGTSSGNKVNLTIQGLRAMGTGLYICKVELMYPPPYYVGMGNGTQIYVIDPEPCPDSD

Binder | binding result [1] | binding result [2]
A1 soluble canine anti-cCTLA4 scFv (scFv, V domains shown) VH: EVQLVESGGDLVKPAGSLRLSCVASGFSFSSYAMNWVRQAPGKGLQWIAGINSGGSSTSHIDAIKGRFTISRDNAKNTLYLQMNSLRAEDTAVYYCAISNWAYWGQGTLVTVSS VL: QAVLNQPASVSGSLGQRVTISCTGSSSDIGKSYVAWYQQLPGTGPRTLINVDGNRASGVPDRFSVSRSGNTATLTISGLQAEDEADYHCSSWDWSLHTYVFGSGTQLTIL | binds | –
A1mut2 fully canine IgGA (antibody, V domains shown) VH: EVQLVETGGDLVKPGGSLRLSCVASGFSFSSYAMNWVRQAPEKGLQLVGGINSGGSSTYYTDAVKGRFTISRDNAKNTVYLQMNSLRAEDTAVYYCAISNWAYWGQGTLVTVSS VL: QAVLNQPASVSGSLGQRVTISCTGSSSDIGKSYVAWYQQLPGTGPRTLINVDGNRASGVPDRFSVSRSGNTATLTISGLQAEDEADYHCSSWDWSLHTYVFGSGTQLTIL | – | binds
